{"source": "patent US20160271248A1", "about": "“CXCR4 UP- AND DOWN-REGULATION FOR TREATMENT OF DISEASES OR DISORDERS” (priority 2013, published 2016)", "system": "neuronal FHC", "assay": "gp120-mediated upregulation of neuronal FHC in bilaminar co-cultures with neutralizing antibodies or IL-1ra", "type": "cell-based, rat", "details": "IL-1β antibody 50 μg/mL, IL-1ra 1 μg/mL", "method": "FIG. 13, comprising FIGS. 13A-13C, is a set of bar graphs and images illustrating that the presence of an IL-1β neutralizing antibody or IL-1 receptor antagonist abrogated gp120-mediated increases in FHC. Rat neurons cultured with a feeder layer of glia (8 DIV) were treated with either gp120IIIB (200 pM) or gp120BaL (200 pM) in the presence or absence of TNF-α antibody (40 μg/mL), IL-1β antibody (50 μg/mL) or IL-1ra (1 μg/mL). The presence of a TNF-α neutralizing antibody had no effect on the ability of gp120 to upregulate neuronal FHC. Neutralization or antagonism of IL-1β mitigated increases in neuronal FHC caused by gp120 in bilaminar cultures.\nRat cortical neurons were cultured in serum-free media in the presence of a glial feeder layer (Shimizu, et al., 2011, J. Vis. Exp. 57). This culture system largely preserves the in vivo environment, due to the presence of glia; however, it still enables direct investigation of neurons that can be separated by the glia before experiments. Selected studies were also performed in neurons grown in the absence of glia for the entire culture period, as indicated (Sengupta, et al., 2009, J. Neurosci. 29(8):2534-44). All experiments were conducted between 8-13 days in vitro (DIV).\nTotal protein extracts were obtained using standard protocols. […]"}
{"molecule": "IL-1ra: IL-1 receptor antagonist, an endogenous inhibitor of IL-1 signaling (protein, UniProt P25086 27-178, looked up) Interleukin-1 receptor …: HPAGKRPCKMQAFRIWDTNQKTFYLRNNQLIAGYLQGPNTKLEEKIDMVPIDFRNVFLGIHGGKLCLSCVKSGDDTKLQLEEVNITDLNKNKEEDKRFTFIRSETGPTTSFESLACPGWFLCTTLEADHPVSLTNTPKEPCTVTKFYFQEDQ", "values": [{"measurement": "effect on gp120-induced upregulation of neuronal FHC", "setting": "gp120IIIB or gp120BaL 200 pM, TNF-α antibody 40 μg/mL", "result": "completely blocked"}, {"measurement": "FHC protein levels, treatment alone", "setting": "without gp120", "result": "no significant effect on FHC protein levels"}]}
